Test results: a protein production outcome set (Wang et al. 2014)

Experiment: label from the status in PepcDB records

| Sequence | protein production |
| --- | --- |
| MKSSYGSSSNDLHAFVNEIKGEIQLSNINLDPYSFVSPSAYDTAWLSMIEEDINVDDNELKPMFQGCLDWIMCNQNAREGFWMNSTSYTTVADGRDEDGEKDMCILTSTLACVVALQKWNIGCFHLHKGTRYIERNTEMIIGKYINEEGSYPRWFAIKFTGILELAQKLGLHFVFSSRCIEMIKGMFYQRQEIIQREKLVHDCNYKPLLAYLEVLPSKLYVTNQEDIIVKSLDSMDGSLFQSPSATASAFMLTRNTKCLAYLQNLVQKCPNGVPQKYPLNEDLIKLSMVNLIESTGLGEFFGIEIEHVLEQVYSRYEEKDFERMPMSYLADQLHKDSLAFRMLRMHGRDVSPRSFCWFLNDQETRNHLERNIDSFLLVILSVYRATDLMFPGEHDLQEAREYTRNLLEKRRSIKEKMVPIYLNKIMHELSTPWIARLKHLDHRMWIEDKNSNVLSMEKASFLRLHSSYSDKLTHLAARNFEFQQAKYCRELEELTMWVKKWGLSDIGFGREKTTYCYFATVTSLPYEYAIKFGKLAAKTAILITIADDFFDEKGSFNDLEGLTKAVLRWEGEELKSYGNIIFRALDDIVRETANTCRTHHKTDIIVHLRNIWGETFESWLREAEWSKKGHTSSMDEYIRNGMISIAAHTIALSISCLMEPCFPHNKLKPGNYDSITTLLMIIPRLLNDLQSYQKEQEQGKMNSVLLHMKNHPGLEIEDSIAHIEKIIDSKRKEFLEHVLVDGLSDLPKPCKEIHMSCCKVFEMFFNKKNRYDSNTEMLHDIKKALYDPINVYELSEMEPMPLMAHGDEYMILPLLLNSLPNILEFKRKDGYGAMKTSMCFGRSYRVNKRVMASQLDDQHKPLKIVASQRKPVPMMQSIFAPCFY | failed |
| MGHHHHHHSHNSSSCPEIQGFLHVKELGKKSWKKLYVCLRRSGLYCSTKGTSKEPRHLQLLADLEDSNIFSLIAGRKQYNAPTDHGLCIKPNKVRNETKELRLLCAEDEQTRTCWMTAFRLLKYGMLLYQNYRIPQQRKALLSPFSTPVRSVSENSLVAMDFSGQTGRVIENPAEAQSAALEEGHAWRKRSTRMNILGSQSPLHPSTLSTVIHRTQ | failed |
| MGHHHHHHSHRPESFFQQSFQRLSRLGHGSYGEVFKVRSKEDGRLYAVKRSMSPFRGPKDRARKLAEVGSHEKVGQHPCCVRLEQAWEEGGILYLQTELCGPSLQQHCEAWGASLPEAQVWGYLRDTLLALAHLHSQGLVHLDVKPANIFLGPRGRCKLGDFGLLVELGTAGAGEVQEGDPRYMAPELLQGSYGTAADVFSLGLTILEVACNMELPHGGEGWQQLRQGYLPPEFTAGLSSELRSVLVMMLEPDPKLRATAEALLALPVLRQPRAWGVLWCMAAEALSRG | failed |
| MPGDLPMPTTMFTADELAVIRRAYAHQVMATAATTNPRIEAAFATVPREKFLGAPPWQIANLGGGNRPLPSSDLVLAYQDVLFALQPDNGVNNGSPSLHARLLAELDIQIGDRIAHIGAGTGYYSAILAELVGTSGHVYAVEMDPDLAAHAQAALAERANVSVINADGSQWPQQEVDAIYVNFAVARPAEPWIERLRPGGRLVLPLGVPRQDRPPKGGRHASHGAALRIEHGEGGFAARWIGTAYFVCANGGLTIDDNEIEALTAAFRRGGIEFVKSLLWKTEPRIGRCWHIGGQWALCYDDV | failed |
| MKYWMLLFALLWVSYGTGMARKTEKVVNNGIPWFDDRGEIVNAHGACIVEENGRYYLFGEYKSDKSNAFPGFSCYSSDDLVNWKFERVVLPMQSSGILGPDRVGERVKVMKCPSTGEYVMYMHADDMNYKDPHIGYATCSTIAGEYKLHGPLLYEGKPIRRWDMGTYQDTDGTGYLLLHGGIVYRLSKDYRTAEEKVVSGVGGSHGESPAMFKKDGTYFFLFSNLTSWEKNDNFYFTAPSVKGPWTRQGLFAPEGSLTYNSQTTFVFPLKCGEDTIPMFMGDRWSYPHQASAATYVWMPMQVDGTKLSIPEYWPSWDVDKLKPVNPLRKGKTVDLKKITFSKEADWKVEEGRISSNVKGSTLSIPFTGSCVAVMGETNCHSGYARMNILDKKGEKIYSSLVDFYSKANDHATRFKTPQLAEGEYTLVIEVTGISPTWTDKTKRIYGSDDCFVTITDIVKL | failed |
| MESTLSASNMQDPSSSPLEKCLGSANGNGDLDSEEGSSLEETGFNWGEYLEETGASAAPHTSFKHVEISIQSNFQPGMKLEVANKNNPDTYWVATIITTCGQLLLLRYCGYGEDRRADFWCDVVIADLHPVGWCTQNNKVLMPPDAIKEKYTDWTEFLIRDLTGSRTAPANLLEGPLRGKGPIDLITVGSLIELQDSQNPFQYWIVSVIENVGGRLRLRYVGLEDTESYDQWLFYLDYRLRPVGWCQENKYRMDPPSEIYPLKMASEWKCTLEKSLIDAAKFPLPMEVFKDHADLRSHFFTVGMKLETVNMCEPFYISPASVTKVFNNHFFQVTIDDLRPEPSKLSMLCHADSLGILPVQWCLKNGVSLTPPKGYSGQDFDWADYHKQHGAQEAPPFCFRNTSFSRGFTKNMKLEAVNPRNPGELCVASVVSVKGRLMWLHLEGLQTPVPEVIVDVESMDIFPVGWCEANSYPLTAPHKTVSQKKRKIAVVQPEKQLPPTVPVKKIPHDLCLFPHLDTTGTVNGKYCCPQLFINHRCFSGPYLNKGRIAELPQSVGPGKCVLVLKEVLSMIINAAYKPGRVLRELQLVEDPHWNFQEETLKAKYRGKTYRAVVKIVRTSDQVANFCRRVCAKLECCPNLFSPVLISENCPENCSIHTKTKYTYYYGKRKKISKPPIGESNPDSGHPKPARRRKRRKSIFVQKKRRSSAVDFTAGSGEESEEEDADAMDDDTASEETGSELRDDQTDTSSAEVPSARPRRAVTLRSGSEPVRRPPPERTRRGRGAPAASSAEEGEKCPPTKPEGTEDTKQEEEERLVLESNPLEWTVTDVVRFIKLTDCAPLAKIFQEQDIDGQALLLLTLPTVQECMELKLGPAIKLCHQIERVKVAFYAQYAN | failed |
| MNVVQVEYLNVAEIKALLNSTISKLNPRYTSNYMIVTAILTGARLSEIAGLTWNDINFNFNTININKSYDYFAKSFKPTKNKSSNRIIKINNTLCDVLKELRTNNTDLVFKNKRGLIPTSNAVNKALRARLEELNINRRNFHFHSLRHSHVAFLLSQGIDIYPIAQRLGHSDITTTTRTYAYLIEEYKDKNDAIIIAGLDKLEHHHHHH | failed |
| MLRFPGQGHHNPDDVVIGLLDLAARVDEALAVQAVAFGLGADEVAVRHQIVLRHLTSPGARAFGATTGDGRLVGFVYGMPNDRTHWWSTVVEPYLRGQGHEDWLDNSFVITELHVHPHFQNHGIGRSLITTITDGAAEPRSILSAIDTESPARGLYHSLGYEDLARQVLFPSAPRPYAVMGAPLPLRRR | failed |
| MSSATGSKIVVTGATGNVGTSVVRLLSEDPEVGTVLGLARRIPDWSPAKTEWAAVDLASEQSDLTSHFADADAVVHLAWAFQPTHDPATTWRTNVLGSIRVFEAVAAAGVPALVHASSVGAYSPGPKNHAVDESWPTHGWPDAAYCREKAYLERALDTFERDHPGIRVVRMRPAFLFKRESASEQRRIFGGRFLPGPAARPELLPFLPDVPGLRVQALHTDDAARAYRLAVRSADARGAFNLAAEPPVDAELLGELLGVRPVRLPRAAARSAIAAAWGMRLLPASPHLFDAVLRLPVMDCTRARVELGWGATRTATEVLEEFLRGLRQGAGADTEPMRGRKVG | failed |
| MAAYLERCDSVEEDYIDMEVTSFTNLVRKTLSNNYPREFEFQMSHLCPLEIDKTTSPADELFYKGKLLPLHLPPRLQMVQKILEDYTFDDEFYSTPLATGTVTTPVTSNTPFESCTVSPAESCQVSKELNPEDYFLEYSDSLEEDDEKKKSWTTKLRLMKQSSLGTKIKASRAYLRSFFGKTSCSDESSCASSAARVADEDSVLRYSRVKPFGQIKTERPKKQSNGSVSGSHRRSFSVSMRRQAAKSSNNKSSNSLGFRPLQFLKRSTSSSSEIENSIQGAILHCKQSQQQKQKQKQYSTVNEVGFCSLSASRIAARDDQEWAQMFRG | failed |
